Results taken from article doi:10.1101/2023.09.20.558697.
Read-outs that look alike come from different tables or passages of the source.

Experiments:
Assay in all cases: EMSA
RokL6-His6 [1] = target: T1, RokL6-His6 (Streptomyces coelicolor A3(2) M145, UniProt Q9L112 1-399)
T1 sequence: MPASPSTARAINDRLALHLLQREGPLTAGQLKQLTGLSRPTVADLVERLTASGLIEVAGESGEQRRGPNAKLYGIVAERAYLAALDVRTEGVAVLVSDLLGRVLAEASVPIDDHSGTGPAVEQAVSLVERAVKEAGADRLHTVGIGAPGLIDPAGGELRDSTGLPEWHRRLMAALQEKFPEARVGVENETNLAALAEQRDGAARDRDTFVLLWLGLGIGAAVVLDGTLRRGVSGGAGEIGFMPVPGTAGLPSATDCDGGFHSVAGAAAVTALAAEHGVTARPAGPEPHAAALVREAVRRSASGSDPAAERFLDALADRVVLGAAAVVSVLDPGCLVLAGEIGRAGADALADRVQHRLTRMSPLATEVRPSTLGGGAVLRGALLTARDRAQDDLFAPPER

RokL6-His6 [2] = target: T1, RokL6-His6; remark: listed apart in the source
RokL6-His6 [3] = target: T1, RokL6-His6; remark: listed apart in the source

B1: hrdB-P (dsDNA)
DNA 1: CGGCCCGCCCGCACCGTCGGCCCATTCCCAAGCCGGTGGTCGGCCCCTGTCCGCCGTGGA
DNA 2: TCCACGGCGGACAGGGGCCGACCACCGGCTTGGGAATGGGCCGACGGTGCGGGCGGGCCG
binding result (RokL6-His6 [1]): no binding

B2: RokL6-BS (dsDNA)
DNA 1: CGCACCGGTAATCCACTATCTATCAGGCAGGCTCCCTGATAGTTTACGCCGCGGATTGAC
DNA 2: GTCAATCCGCGGCGTAAACTATCAGGGAGCCTGCCTGATAGATAGTGGATTACCGGTGCG
binding result (RokL6-His6 [2]): binds

B3: RokL6-M3 (dsDNA)
DNA 1: CGCACCGGTAATCCACTATCGAATTCGCAGGCTCCGGATCCGTTTACGCCGCGGATTGAC
DNA 2: GTCAATCCGCGGCGTAAACGGATCCGGAGCCTGCGAATTCGATAGTGGATTACCGGTGCG
binding result (RokL6-His6 [3]): no binding
